# According to patent US20220251619A1:
# Target: porcine pancreatic elastase (Merck, Germany, Cat. No. 324682) (porcine) (UniProt P00772)
# Experiment: cell-based or functional assay
# Sequence of UniProt P00772 (P00772 27-266 limits assumed): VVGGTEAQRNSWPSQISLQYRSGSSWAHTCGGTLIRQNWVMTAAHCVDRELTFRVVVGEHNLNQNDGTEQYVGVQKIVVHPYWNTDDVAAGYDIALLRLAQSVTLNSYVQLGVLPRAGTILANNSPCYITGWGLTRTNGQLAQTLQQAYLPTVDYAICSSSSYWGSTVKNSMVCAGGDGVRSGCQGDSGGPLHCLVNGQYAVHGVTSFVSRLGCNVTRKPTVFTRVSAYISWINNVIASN
Substance,"% active AAT relative to plasma-derived AAT (elastase inhibition, SAPNA hydrolysis at 410 nm), Assay 1 [%]","% active AAT relative to plasma-derived AAT (elastase inhibition, SAPNA hydrolysis at 410 nm), Assay 2 [%]","Average % Activity (elastase inhibition, SAPNA hydrolysis at 410 nm) [%]"
"recombinant alpha-1 antitrypsin produced in CHO-DG44 cells, untreated (from UniProt P01009 25-418)",90.1,88.6,89.3
"remodelled rAAT (rAAT incubated with beta1,4-galactosyltransferase, alpha2,3 sialyltransferase from Pasteurella multocida and alpha2,6 sialyltransferase from Photobacterium damselae, then purified) (from UniProt P01009 25-418)",97.1,93,95.4
